{
  "source": "patent CN113735970A",
  "about": "(INST MILITARY MEDICINE ACADEMY MILITARY SCIENCES PLA, dated 2021)",
  "binders": {"B1": {"name": "抗SARS-CoV-2全人源单克隆抗体ZWC6 (antibody, human IgG1, kappa, V domains shown)", "VH": "EVQLVESGGGVVQPGTSLRLSCAASGFSFSHYVMYWVRQAPGKGLDWVAIISFDGSSQYYADSVKGRFTISRDNSKDTLYLQMHSLRPEDTAVYYCAIHGGTYYYDKNILAWGQGTLVTVSS", "VL": "AIRMTQSPPTLSLSPGERATLSCRASQSVTNYLVWYQQKPGQAPRLLIYDTFNRATGIPARFSGSGSGTDFTLTISSLEPEDFAVYYCQQRSNWPPTFGQGTKVDIKR"}},
  "key": {"[1]": {"target": "SARS-CoV-2 WT S-ECD蛋白 (SARS-CoV-2, UniProt P0DTC2 14-1213)"}, "[2]": {"target": "SARS-CoV-2 WT RBD蛋白 (SARS-CoV-2, UniProt P0DTC2 319-541)"}},
  "data": [
    {"binder": "B1", "values": [
      {"measurement": "Kd", "setting": "[1]", "value": 1.49, "unit": "nM"},
      {"measurement": "koff", "setting": "[1]", "value": 0.000255, "unit": "s⁻¹"},
      {"measurement": "kon", "setting": "[1]", "value": 171000, "unit": "M⁻¹ s⁻¹"},
      {"measurement": "Kd", "setting": "[2]", "value": 0.683, "unit": "nM"},
      {"measurement": "koff", "setting": "[2]", "value": 0.000365, "unit": "s⁻¹"},
      {"measurement": "kon", "setting": "[2]", "value": 535000, "unit": "M⁻¹ s⁻¹"}
    ]}
  ]
}
